Source: paper PMC9224406

Tests used:
[1] = target: BDNF pro-peptide pro-peptide (Homo sapiens) (UniProt P23560); assay: SPR; conditions: cited from earlier work
[2] = target: BDNF pro-peptide V66M pro-peptide (Homo sapiens) (UniProt P23560); assay: SPR; conditions: cited from earlier work
[3] = target: human proBDNF V66M variant (human); assay: SAXS; hproBDNF V66M in solution at five concentrations (0.14–1.45 mg/mL), 50 mM Sodium Phosphate pH 7.0, 283 K; molecular mass from I(0) against BSA and from the Porod volume, compared with the calculated monomer mass

Chain of BDNF (P23560 129-247): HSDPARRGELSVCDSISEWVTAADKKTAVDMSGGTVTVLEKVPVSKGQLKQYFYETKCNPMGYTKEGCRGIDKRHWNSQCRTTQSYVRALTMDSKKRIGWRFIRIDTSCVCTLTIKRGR
Chain of BDNF pro-peptide V66M pro-peptide (Homo sapiens) (P23560 19-128 V66M): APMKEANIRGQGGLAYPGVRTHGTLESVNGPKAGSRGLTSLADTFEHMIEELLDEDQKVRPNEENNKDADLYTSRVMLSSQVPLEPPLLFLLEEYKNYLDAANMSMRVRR
Chain of BDNF pro-peptide pro-peptide (Homo sapiens) (P23560 19-128): as the sequence (P23560 19-128 V66M) above, with M48V counted along it

Row | stoichiometry N [3] | Substance | Kd [1] | Kd [2]
1 | – | BDNF (from UniProt P23560) | 0.42 nM | 0.12 nM
2 | 2 | human proBDNF V66M variant (natural protein) | – | –
